{
  "source": "the nanobody polyreactivity screen of Harvey et al. (2022)",
  "data": [
    {"test": "yeast display, Sf9 membrane polyspecificity reagent, FACS + sequencing; frameworks hold sequencing errors", "how_it_was_run": "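Nanobodies from a synthetic yeast display library (Saccharomyces cerevisiae BJ5465), induced 36–48 hours with galactose, were stained 1 hour at 4 °C with 10% biotinylated, detergent-solubilized Sf9 membrane reagent, enriched on streptavidin microbeads, then FACS-sorted. Anti-HA (expression) and streptavidin (reagent binding) fluorescence set low and high (top ~1%) gates. Polyreactivity labels come from the gate of origin. Genes were colony-PCR amplified, MiSeq 2 × 250 sequenced and filtered by CDR length.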", "values": [
      {"sequence": "QVQLVESGGGLVQAGGSLRLSCAASGSIFIYNAMGWYRQAPGKERELVAAISSSGGSTYYADSVKGRFTISRDNAKNTVYLQMNSLNPEDTAVSYCAARTYYVRGLGGRPGMDYWGQGTQVTVSS", "polyreactivity (PSR sort gate)": "low polyreactivity"},
      {"sequence": "QVQLVESGGGLVQAGGSLRLSCAASGSIFKANGMGWYRQAPGKEREFVAAITRSGATTYYADSVKGRFTISRDNAKNTVYLQMNSLKPEDTAVYYCNVKAWRDLYYAGFDYWGQGTQVTVSS", "polyreactivity (PSR sort gate)": "low polyreactivity"},
      {"sequence": "QVQLVESGGGLVQAGGSLRLSCAASGSIFKDNAMGWYRQAPGKERELVAAITSGASTNYADSVKGRFTISRDNAKNTVYLQMNSLKPEVTAVYYCAAVLAGGVYWVVHYDYWGQGTQVTVSS", "polyreactivity (PSR sort gate)": "low polyreactivity"},
      {"sequence": "QVQLVESGGGLVQAGGSLRLSCAASGSIFKGNAMGCYRQAPWKESEMVAAISGGGGSTYYADSVKGRFTISRDNAKNTVYLQMYSLKPEDTAVYYCAARYYESPGDRSGFRYGYWGQGTQVTVSS", "polyreactivity (PSR sort gate)": "high polyreactivity"},
      {"sequence": "QVQLVESGGGLVQAGGSLRLSCAASGSIFKGNVMGWYRQAPGKERELVAAITWSGGSTYYADSVKGRFTISRDNAKNTVYLQMNSLKPEDTAVYYCNTDRYHRVDFDYWGQGTQVTVSS", "polyreactivity (PSR sort gate)": "high polyreactivity"},
      {"sequence": "QVQLVESGGGLVQAGGSLRLSCAASGSIFKGYAMGWYRQAPGKERELVAAISSSGGSTYYADSVKGRFTISRDNAKNTVYLQMNSLKPEDTAVYYCNTDRYYTYDYWGQGTQVTVSS", "polyreactivity (PSR sort gate)": "low polyreactivity"},
      {"sequence": "QVQLVESGGGLVQAGGSLRLSCAASGSIFKIYAMGWYRQAPGKERELVARITRRGGRTNYADSVKGRFTISRDNAKNTVYLQMNSLKPEDTAVYYCASLGRRGGDYWGQGTQVTVAS", "polyreactivity (PSR sort gate)": "high polyreactivity"},
      {"sequence": "QVQLVESGGGLVQAGGSLRLSCAASGSIFKKYAMGWYRQAPGKERELVAAISSTGGSTKYADSVKGRFTISRDNAKNTVYLQMNSLKPEDTAVYYCAVRYKWPYDYWGQGTQVTVSS", "polyreactivity (PSR sort gate)": "high polyreactivity"},
      {"sequence": "QVQLVESGGGLVQAGGSLRLSCAASGSIFKKYAMGWYRQAPGKERELVAAISSTGGSTKYADSVKGRFTISRDNAKNTVYLQMNSLKPEDTAVYYCNAPGLRDYDAEYDYWGQGTQVTVSS", "polyreactivity (PSR sort gate)": "high polyreactivity"},
      {"sequence": "QVQLVESGGGLVQAGGSLRLSCAASGSIFKKYAMGWYRQAPGKERELVAAISSVGGTYYADSVKGRFTISRDNAKNTVYLQMNSLKPEDTAVYYWYTDGYVGSIRSGLYIYDYWGQGTQVTVSS", "polyreactivity (PSR sort gate)": "low polyreactivity"},
      {"sequence": "QVQLVESGGGLVQAGGSLRLSCAASGSIFKKYAMGWYRQAPGKERELVAAITRGTYYADSVKGRFTISRDNAKNTVYLQMNSLKPEDTAVYYCNREYWGRGYYRVRGEYDYWGQGTQVTVSS", "polyreactivity (PSR sort gate)": "low polyreactivity"},
      {"sequence": "QVQLVESGGGLVQAGGSLRLSCAASGSIFKLNAMGWYRQAPGKERELVAAITFSDGSTNYADSVKGRFTISRDNAKNTVYLQMNSLKPEDTAVYYCAAEFYYRTQWYYYWGQGTQVTVSS", "polyreactivity (PSR sort gate)": "high polyreactivity"},
      {"sequence": "QVQLVESGGGLVQAGGSLRLSCAASGSIFKLYALGWYRPAPGKERELVAAISLSDGGTYYADSVKGRFTISRDNPKNTVYLQMNSLKPEDTAVYYCNKYYWYPYGRAHDYGYWGQGTQVTVSS", "polyreactivity (PSR sort gate)": "high polyreactivity"},
      {"sequence": "QVQLVESGGGLVQAGGSLRLSCAASGSIFKNYAMGWSRQSPGKERELVASITTGASTNYADSVKGRFTISRDNAKNTVYLQMNSLKPEDTAVYYCNADRYYSHYSYYYWGQGTQVTVSS", "polyreactivity (PSR sort gate)": "high polyreactivity"},
      {"sequence": "QVQLVESGGGLVQAGGSLRLSCAASGSIFKNYAMGWYRQAPGKERELVASITTGASTNYADSVKGRFTISRDNAKNTVYLQMNSLKPEDTAVYYCAKGGRTFRYFVAPRTFDHGYWGQGTQVTVSS", "polyreactivity (PSR sort gate)": "high polyreactivity"},
      {"sequence": "QVQLVESGGGLVQAGGSLRLSCAASGSIFKPYAMGWYRQAPGKERELVAAISSSGGSTYYADSVKGRFTISRDNAKNTVYFQMNSLKPEDTAVYYCNADWYYAGYGYWGQGTQVTVSS", "polyreactivity (PSR sort gate)": "low polyreactivity"},
      {"sequence": "QVQLVESGGGLVQAGGSLRLSCAASGSIFKQNAMGWYRQAPGKDRELVASIRASGDRTYYADSVKGRFTISRDNAKNTVYLQMNSLKPEDTAVYYCAARRVRTRGYNYWGQGTQVTVSS", "polyreactivity (PSR sort gate)": "high polyreactivity"}
    ]}
  ]
}
